In the assay the target is Recombinant spike, SARS-CoV-2 stabilized protein (BEI Resources NR-52724) (SARS-CoV-2) (UniProt P0DTC2). In words: BLI. (In general: BLI is a label-free optical method that tracks binding on a fibre tip over time.)

Our source for the Kd values is PMC10911789.

Sequence of recombinant human GAPDH (glyceraldehyde-3-phosphate dehydrogenase) (P04406 whole entry): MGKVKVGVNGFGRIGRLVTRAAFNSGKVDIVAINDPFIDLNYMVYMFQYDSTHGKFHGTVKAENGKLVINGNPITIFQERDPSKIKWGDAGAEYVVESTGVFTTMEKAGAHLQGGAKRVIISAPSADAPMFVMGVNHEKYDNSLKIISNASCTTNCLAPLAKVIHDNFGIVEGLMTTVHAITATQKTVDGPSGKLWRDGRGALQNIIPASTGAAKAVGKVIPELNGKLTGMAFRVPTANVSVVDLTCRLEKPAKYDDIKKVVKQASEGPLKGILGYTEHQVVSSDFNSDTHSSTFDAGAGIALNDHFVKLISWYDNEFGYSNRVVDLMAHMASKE

The term Kd denotes the equilibrium constant for the complex coming apart. With “recombinant human GAPDH (glyceraldehyde-3-phosphate dehydrogenase) (from UniProt P04406 1-335) (enzyme)”, the Kd came to 0.0619 µM.
